Measurements from US20240376207A1 (JIANGSU HENGRUI PHARMACEUTICALS, published 2024).
Where two headings read alike, the source gives them in different places. One block for each binder: values may come before it.

Tests used:
[1] = target: T1, human TIGIT recombinant protein (human, UniProt Q495A1 22-141, limits assumed); assay: ELISA, coated antigen
T1 construct: construct not described; also called human TIGT recombinant protein
T1 sequence (looked up): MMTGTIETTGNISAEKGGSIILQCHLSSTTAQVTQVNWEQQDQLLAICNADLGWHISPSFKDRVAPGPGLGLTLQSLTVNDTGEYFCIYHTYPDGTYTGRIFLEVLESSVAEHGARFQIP
Description: (§1) A human, cynomolgus monkey, or mouse PVRIG protein (at a concentration of 1 μg/mL) was coated on a 96-well microplate at 100 μL per well, and incubated overnight at 4° C. The plate was washed three times with wash buffer at 250 μL per well. For each wash, the plate was shaken for 10 s to ensure adequate cleaning. A blocking solution (PBS+0.05% Tween20+1% BSA) was added at 300 μL/well, and the plate was incubated at room temperature for 1 h. The plate was washed three times with wash buffer at 250 μL per well. For each wash, the plate was shaken for 10 s to ensure adequate cleaning. Dilutions of the test anti-PVRIG antibodies were added at 100 μL/well. The plate was incubated at 37° C. for 1 h. The plate was washed three times with wash buffer at 250 μL per well. The […] anti-human IgG secondary antibody (Sigma, A8667) was added at 100 μL per well. The plate was incubated at 37° C. for 1 h. The plate was washed three times with wash buffer at 250 μL per well. TMB was added at 100 μL/well, and the plate was incubated in the dark for 15 min. 0.16 M sulfuric acid was added at 50 μL/well. The OD values at 450 nm were read by using a Thermo MultiSkanFc microplate reader, and the EC₅₀ values of the binding of the anti-PVRIG antibodies to PVRIG were calculated.
(§2) Similarly to Examples 4, 5 and 6, the binding of humanized anti-PVRIG/TIGIT bispecific antibodies to human and cynomolgus monkey TIGIT and blocking of binding of human TIGIT to ligand were detected, where PVRIG protein was replaced with TIGIT and PVRL2 was replaced with PVR.

[2] = target: cynomolgus monkey TIGIT recombinant protein (cynomolgus monkey, UniProt A0A7N9I9V4 89-209); assay: ELISA, coated antigen
Description: as §1, §2

[3] = target: T2, cynomolgus monkey TIGIT expressed on cells (cynomolgus monkey, UniProt A0A7N9I9V4 89-312); assay: FACS, cells overexpressing target
T2 construct: whole, on cells; also called cells overexpressing cynomolgus monkey TIGIT
Description: (§3) The expression plasmid carrying human or cynomolgus monkey PVRIG gene sequence was transfected into HEK293 cells, and the over-expressing stable transfection monoclonal cell strain was obtained by antibiotic screening and infinite dilution. Overexpressing cells were seeded into a 96-well plate at 2×10⁵ cells/per well. The cells were centrifuged at 300 g for 5 min, the supernatant was then removed, 100 μL of the test antibody was added, and the mixture was incubated at 4° C. for 1 h. The mixture was centrifuged, the supernatant was removed, the plate was washed 3 times with 200 μL of wash buffer (PBS+2% FBS), and then 100 μL of an anti-human IgG secondary antibody (Invitrogen, A-11013) labeled with Alexa Fluor 488 diluted at 1:500 was added. The mixture was incubated at 4° C. for 1 h. The plate was centrifuged, and the supernatant was removed. The plate was washed 3 times with 200 μL of wash buffer (PBS+2% FBS). The cells were resuspended in 100 μL of PBS and tested on a flow cytometer (BD FACS Calibur or BD FACS Canto_II).
as §2

[4] = target: T3, human TIGIT expressed on cells (human, UniProt Q495A1 22-244); assay: FACS, cells overexpressing target
T3 construct: whole, on cells; also called cells overexpressing human TIGIT
T3 sequence (looked up): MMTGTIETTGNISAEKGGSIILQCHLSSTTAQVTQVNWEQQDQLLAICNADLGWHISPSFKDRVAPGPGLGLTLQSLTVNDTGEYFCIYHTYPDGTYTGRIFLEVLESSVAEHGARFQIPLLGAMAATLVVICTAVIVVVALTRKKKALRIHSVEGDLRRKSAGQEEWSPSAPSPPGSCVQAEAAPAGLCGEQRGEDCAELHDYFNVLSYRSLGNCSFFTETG
Description: as §3, §2

[5] = target: T1, human TIGIT recombinant protein; assay: competition ELISA; human TIGIT, competitor human PVR
Description: (§4) The h-PVRIG-mIgG2a Fc protein (at a concentration of 1 μg/mL) was coated on the 96-well microplate at 100 μL per well, and incubated overnight at 4° C. The plate was washed three times with wash buffer at 250 μL per well. For each wash, the plate was shaken for 10 s to ensure adequate cleaning. A blocking solution was added at 300 μL/well, and the plate was incubated at room temperature for 1 h. The plate was washed three times with wash buffer at 250 μL per well. For each wash, the plate was shaken for 10 s to ensure adequate cleaning. 50 μL of diluted test anti-PVRIG antibody and 50 μL of his-tagged ligand PVRL2 were added to each well, and the plate was incubated at 37° C. for 1 h. The plate was washed three times with wash buffer at 250 μL per well. The HRP-labeled anti-his-tagged secondary antibody (Genscrpit) diluted at 1:2000 was added at 100 μL per well. The plate was incubated at 37° C. for 1 h. The plate was washed three times with wash buffer at 250 μL per well. TMB was added at 100 μL/well, and the plate was incubated in the dark for 15 min. 0.16 M sulfuric acid was added at 50 μL/well. OD values at 450 nm were measured using a Thermo MμtLtiSkanFc microplate reader, and the IC₅₀ values of the anti-PVRIG antibodies blocking the binding of PVRIG to PVRL2 were calculated.
as §2

[6] = target: T4, human TIGIT antigen (AcroBiosystem, TIT-H52H3) (human, UniProt Q495A1 22-141); assay: SPR (Biacore X100), antibody captured on Protein A chip, 1:1 fit
T4 sequence (looked up): T1 sequence (looked up)
Excerpt: The affinity of the humanized bispecific antibodies for human PVRIG, cynomolgus monkey PVRIG and human TIGIT was detected using Biacore. Humanized bispecific antibodies were each captured on a Protein A biosensor chip (GE lifesciences, 29127557) of a Biacore instrument (Biacore X100, GE), and then human PVRIG antigen (AcroBiosystem, PVG-H52H4), cynomolgus monkey PVRIG antigen (SEQ ID NO: 1), or human TIGIT antigen (AcroBiosystem, TIT-H52H3) at a series of concentration gradients each flowed over the chip surface. The reaction signals were detected in real time using a Biacore instrument (Biacore X100, GE) to obtain association and dissociation curves. The data obtained from the experiment were fitted using the (1:1) Binding model with the BiacoreX100 evaluation software 2.0 GE to obtain affinity values (see Table 31).

[7] = target: T5, his-tagged cynomolgus monkey PVRIG (cyno-PVRIG-his) recombinant protein (cynomolgus monkey); assay: ELISA, coated antigen
T5 construct: expressed in HEK293, purified by Ni-NTA; also called Monkey PVRIG-his; cynomolgus monkey PVRIG recombinant protein
T5 chain: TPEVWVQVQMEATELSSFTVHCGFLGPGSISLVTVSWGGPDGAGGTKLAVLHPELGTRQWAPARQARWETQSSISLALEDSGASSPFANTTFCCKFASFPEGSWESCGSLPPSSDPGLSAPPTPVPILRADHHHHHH
Description: as §1
(§5) Binding of the humanized anti-PVRIG/TIGIT bispecific antibodies to human and cynomolgus monkey PVRIG and their blocking of the ligand of human PVRIG were detected according to the methods of Examples 4, 5 and 6.

[8] = target: T1, human TIGIT recombinant protein; assay: ELISA, coated antigen; remark: listed apart in the source
Description: as §1
(§6) The experiments were carried out according to the methods of Example 4, Example 5 and Example 6 (corresponding receptors and ligands were replaced with human TIGIT and human PVR), and the results are shown in Table 27.

[9] = target: T3, human TIGIT expressed on cells; assay: FACS, cells overexpressing target; remark: listed apart in the source
Description: as §3, §6

[10] = target: T1, human TIGIT recombinant protein; assay: competition ELISA; human TIGIT, competitor human PVR; remark: listed apart in the source
Description: as §4, §6

[11] = target: T6, cynomolgus monkey PVRIG expressed on cells (cynomolgus monkey, UniProt A0A2K5WVV8 1-322); assay: FACS, cells overexpressing target
T6 construct: whole, on cells; also called Monkey PVRIG FACS; cells overexpressing cynomolgus monkey PVRIG
T6 sequence: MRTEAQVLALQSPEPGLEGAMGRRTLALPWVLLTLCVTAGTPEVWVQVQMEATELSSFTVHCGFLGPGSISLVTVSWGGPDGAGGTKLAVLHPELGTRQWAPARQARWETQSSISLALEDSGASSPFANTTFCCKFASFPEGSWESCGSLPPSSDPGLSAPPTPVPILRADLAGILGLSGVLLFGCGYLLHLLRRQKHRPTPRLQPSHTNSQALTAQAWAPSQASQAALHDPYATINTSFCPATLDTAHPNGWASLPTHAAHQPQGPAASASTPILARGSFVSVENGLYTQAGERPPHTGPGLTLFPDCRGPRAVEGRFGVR
Description: as §3, §5

EC50 [1]: 0.184 nM
EC50 [2]: 0.135 nM
EC50 [3]: 0.011 nM
EC50 [4]: 0.006 nM
IC50 [5]: 1.09 nM
B1: humanized anti-PVRIG/TIGIT bispecific antibody 1708-151H8 (bispecific antibody, human IgG4 S228P, kappa)
heavy: not shown
light: DIQMTQSPSSLSASVGDRVTITCRASENIYSYLAWYQQKPGKSPKLLIYNARTLAEGVPSRFSGSGSGTDFTLTISSLQPEDFATYYCQYHSGSPLPFGGGTKVEIKRTVAAPSVFIFPPSDEQLKSGTASVVCLLNNFYPREAKVQWKVDNALQSGNSQESVTEQDSKDSTYSLSSTLTLSKADYEKHKVYACEVTHQGLSSPVTKSFNRGEC

Kd [6]: 0.0808 nM
koff [6]: 0.000113 s⁻¹
kon [6]: 1.39e+06 M⁻¹ s⁻¹
EC50 [1]: 0.135 nM
EC50 [2]: 0.105 nM
EC50 [3]: 0.005 nM
EC50 [4]: 0.005 nM
IC50 [5]: 0.812 nM
B2: humanized anti-PVRIG/TIGIT bispecific antibody 1708-39H2 (bispecific antibody, human IgG4 S228P, kappa)
heavy: not shown
light: B1 light

binding result [7]: no binding
EC50 [8]: 0.055 nM
EC50 [1]: 0.133 nM
EC50 [2]: 0.104 nM
EC50 [3]: 0.003 nM
EC50 [4]: 0.0027 nM
EC50 [9]: 0.74 nM
IC50 [10]: 0.87 nM
IC50 [5]: 0.779 nM
binding result [11]: no binding
B3: anti-TIGIT antibody 1708 (antibody, human IgG4 S228P, kappa, V domains shown)
VH: EVQLVQSGAEVKKPGASVKVSCKASGYTFTNYWMHWVRQAPGQGLEWMGRIDPDSTGSKYNEKFKTRVTMTRDTSTSTVYMELSSLRSEDTAVYYCAREGAYGYYFDYWGQGTLVTVSS
VL: DIQMTQSPSSLSASVGDRVTITCRASENIYSYLAWYQQKPGKSPKLLIYNARTLAEGVPSRFSGSGSGTDFTLTISSLQPEDFATYYCQYHSGSPLPFGGGTKVEIKR
notes: human IgG4 subtype with S228P; kappa light chain

EC50 [8]: 0.054 nM
EC50 [9]: 1 nM
IC50 [10]: 0.69 nM
B4: anti-PVRIG/TIGIT bispecific antibody 1708-151-4 (bispecific antibody, human IgG4 S228P, kappa)
heavy: not shown
light: DIQMTQSPSSLSASVGDRVTITCRASENIYSYLAWYQQKPGKSPKLLIYNARTLAEGVPSRFSGSGSGTDFTLTISSLQPEDFATYYCQYHSGSPLPFGGGTKVEIKRTVAAPSVFIFPPSDEQLKSGTASVVCLLNNFYPREAKVQWKVDNALQSGNSQESVTEQDSKDSTYSLSSTLTLSKADYEKHKVYACEVTHQGLSSPVTKSFNRGECGGGGSGGGGSHVQLVESGGGSVQAGGSLRLSCVASASGFTYRPYCMAWFRQAPGKEREAVAGIDIFGGTTYADSVKGRFTASRDNAGFSLFLQMNDLKPEDTAMYYCAAGDSPDGRCPPLGQGLNYWGQGTQVTVSS
